Assay results from PMC3445047.

Substrate: CC(=O)N[C@H]1[C@H](Oc2ccc([N+](=O)[O-])cc2)O[C@H](CO)[C@@H](O)[C@@H]1O
Test: purified protein
Conditions: pH 5.5, 30 °C

B1: OfHex2 (Ostrinia furnacalis) (protein)
chain: IYNNNPGPKYPPTKGEVWPKPQYQKLERYYFTVNTSAFKIKATNHTCPILAKAIERYSFIMRNTFNLDLNRKPKTSRHRLPRETNSEDPYYQGLLKELDIELISPCEEYPYFNMDESYELTISTTAKLLSSSIWGILRGLESWSHLLYLTDDKDGVSIDICVNRTHIADFPRYAHRGLLLDTGRHFISMSNILKTLDAMAMNKLNVFHWHIVDDQSFPYQSEKFPDLSGKGAFDPSLVYTKDDIARVVQYATERGIRVLPEFDVPGHTRSWGEAFPNVLTECFSDGKVVGVGPMNPTVNTTYKLFQELMEEVQEWFPDKYFHIGGDEVQFDCWESNPDLQQYMKDHHMTATQLHALFMKNVIPLLGNNTKPIVWQEVFDVGVPLSSDTIIHVWKNGWVEEMVKILKAGHRLIFSASWYLDHLKTGGDWEDMYMADPRLMVNLVDDTAPLDNIVGGEACMWGEVVDDTNVINRVWPRTSAAAERLWSAGLASNSLERNVRLSILDKARHRIEEHACRMRRRAINAQPPNGPGFCVGAKLF
- Km: 463 ± 27 µM
- kcat: 151 ± 6.21 s⁻¹
- kcat/Km: 326000 M⁻¹ s⁻¹
